What was measured:
Laminin 111 [1] = target: Laminin 111 (Mus musculus, UniProt P19137, shortened LARGE-glycan (LargeKD myotubes), Ca2+); assay: solid-phase binding assay
Laminin 111 [2] = target: Laminin 111 (Mus musculus, UniProt P19137, LARGE-glycan (control myotubes), Ca2+); assay: solid-phase binding assay

B1: alpha-dystroglycan (protein)
chain: HWPSEPSEAVRDWKNQLEASMHSVLSDFQEAVPTVVGIPDGTAVVGRSFRVSIPTDLIASSGEIIKVSAAGKEALPSWLHWDPHSHILEGLPLDTDKGVHYISVSAARLGANGSHVPQTSSVFSIEVYPEDHNEPQSVRAASSDPGEVVPSACAADEPVTVLTVILDADLTKMTPKQRIDLLNRMQSFSEVELHNMKLVPVVNNRLFDMSAFMAGPGNAKKVVENGALLSWKLGCSLNQNSVPDIRGVETPAREGAMSAQLGYPVVGWHIANKKPTLPKRLRRQIHATPTPVTAIGPPTTAIQEPPSRIVPTPTSPAIAPPTETMAPPVRDPVPGKPTVTIRTRGAIIQTPTLGPIQPTRVSEAGTTVPGQIRPTLTIPGYVEPTAVITPPTTTTKKPRVSTPKPATPSTDSSTTTTRRPTKKPRTPRPVPRVTTKAPITRLETASPPTRIRTTTSGVPRGGEPNQRPELKNHIDRVDAWVGTYFEVKIPSDTFYDNEDTTTDKLKLTLKLREQQLVGEKSWVQFNSNSQLMYGLPDSSHVGKHEYFMHATDKGGLSAVDAFEIHVHKRPQGDKAPARFKARLAGDPAPVVNDIHKKIALVKKLAFAFGDRNCSSITLQNITRG
With B1 as the binder, how does the Kd (Laminin 111 [1]) read?
The Kd was 4.75 nM.

What about the Kd (Laminin 111 [2]) of the same binder?
Its Kd is 2.93 nM.

Reference: paper PMC3891507 (2014)
